For one molecule, SEAP activity (HRRE-SEAP reporter in GT1-7 cells) results are on record in US20050049193A1.

The assay has as its target OB-Rb, full-length (long isoform) leptin receptor expressed on transfected GT1-7 cells (mouse), P48356. Nature of the assay: cell-based or functional assay.

Sequence of OB-Rb, full-length (long isoform) leptin receptor expressed on transfected GT1-7 cells (mouse), P48356 (P48356 22-1162): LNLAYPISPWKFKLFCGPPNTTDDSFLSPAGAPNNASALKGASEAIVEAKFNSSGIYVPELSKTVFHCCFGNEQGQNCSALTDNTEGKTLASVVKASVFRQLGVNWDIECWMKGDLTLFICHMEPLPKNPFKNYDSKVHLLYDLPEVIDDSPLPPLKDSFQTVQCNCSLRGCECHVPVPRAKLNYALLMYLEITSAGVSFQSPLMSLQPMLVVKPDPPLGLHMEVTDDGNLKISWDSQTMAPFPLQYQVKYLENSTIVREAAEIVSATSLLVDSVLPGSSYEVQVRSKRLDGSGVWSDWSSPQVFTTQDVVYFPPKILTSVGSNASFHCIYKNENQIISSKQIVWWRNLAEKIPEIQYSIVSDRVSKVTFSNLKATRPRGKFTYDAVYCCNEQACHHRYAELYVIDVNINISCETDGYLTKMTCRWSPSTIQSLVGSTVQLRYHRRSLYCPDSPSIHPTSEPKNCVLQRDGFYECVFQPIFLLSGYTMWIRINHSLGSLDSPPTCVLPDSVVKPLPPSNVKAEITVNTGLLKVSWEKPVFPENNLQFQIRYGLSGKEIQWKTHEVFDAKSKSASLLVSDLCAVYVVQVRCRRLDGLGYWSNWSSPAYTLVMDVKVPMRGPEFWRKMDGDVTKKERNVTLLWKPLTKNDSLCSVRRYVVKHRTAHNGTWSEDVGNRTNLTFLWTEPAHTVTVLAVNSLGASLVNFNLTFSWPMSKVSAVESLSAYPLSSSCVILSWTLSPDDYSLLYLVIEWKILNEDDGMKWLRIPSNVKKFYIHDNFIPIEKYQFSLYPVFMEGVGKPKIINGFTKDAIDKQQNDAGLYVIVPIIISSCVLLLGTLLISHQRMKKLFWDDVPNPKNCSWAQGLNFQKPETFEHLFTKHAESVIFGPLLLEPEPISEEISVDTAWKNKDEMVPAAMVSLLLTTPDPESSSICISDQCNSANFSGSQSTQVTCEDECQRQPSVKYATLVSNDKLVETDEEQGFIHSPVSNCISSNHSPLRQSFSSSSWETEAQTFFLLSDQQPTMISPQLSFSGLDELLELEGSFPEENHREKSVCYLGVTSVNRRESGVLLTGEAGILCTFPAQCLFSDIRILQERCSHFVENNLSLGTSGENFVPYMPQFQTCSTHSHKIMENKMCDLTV

B1: recombinant mouse leptin, P41160 22-167 (ligand)
chain: VPIQKVQDDTKTLIKTIVTRINDISHTQSVSAKQRVTGLDFIPGLHPILSLSKMDQTLAVYQQVLTSLPSQNVLQIANDLENLRDLLHLLAFSKSCSLPQTSGLQKPESLDGVLEASLYSTEVVALSRLQGSLQDILQQLDVSPEC
Molecule B1 showed an SEAP activity (HRRE-SEAP reporter in GT1-7 cells) of 11 fold.
